From patent US20080207488A1, “Method for Detecting Peptides Comprising a Cross-B Structure” (priority 2005, published 2008)

Columns and labels:
[1] = test system: anti-β2GPI auto-antibodies; experiment: Interference with binding of anti-β2GPI autoantibodies to immobilized β2GPI; parameters: species or system human; settings: antibodies from Anti-phospholipid syndrome patients
Protocol: When plasma derived β2GPI is coated onto hydrophilic ELISA plates, anti-β2GPI auto-antibodies isolated from plasma of antiphospholipid syndrome auto-immune patients can bind^14. To study the influence of co-incubations of the coated β2GPI with the antibodies together with plasma β2GPI or recombinant β2GPI, concentration series of β2GPI were added to the patient antibodies. Subsequently, binding of the antibodies to coated β2GPI was determined.

tPA [2] = molecular target: T1, tPA (Homo sapiens, UniProt P00750); experiment: Plasminogen-activation assay (tPA-mediated Plg to Pls, S-2251); format: biochemical; settings: 100 μg ml^−1 protein
T1 construct: purchased Boehringer-Ingelheim (Actilyse, Alteplase)
T1 sequence (P00750 36-562): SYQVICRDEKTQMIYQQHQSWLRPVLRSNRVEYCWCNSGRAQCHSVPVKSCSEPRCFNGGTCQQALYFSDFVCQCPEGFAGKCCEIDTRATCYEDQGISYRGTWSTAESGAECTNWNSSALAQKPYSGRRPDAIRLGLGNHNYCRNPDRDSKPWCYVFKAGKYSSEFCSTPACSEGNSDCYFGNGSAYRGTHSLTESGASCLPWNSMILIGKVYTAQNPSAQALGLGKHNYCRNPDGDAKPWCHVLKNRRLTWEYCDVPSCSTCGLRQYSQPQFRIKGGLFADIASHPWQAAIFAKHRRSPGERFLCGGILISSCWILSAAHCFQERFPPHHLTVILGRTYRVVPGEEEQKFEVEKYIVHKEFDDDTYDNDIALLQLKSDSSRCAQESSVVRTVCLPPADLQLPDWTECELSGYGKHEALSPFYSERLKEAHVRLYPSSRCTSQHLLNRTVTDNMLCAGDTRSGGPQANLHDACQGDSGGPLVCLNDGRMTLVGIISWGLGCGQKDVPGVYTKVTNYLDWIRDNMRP
Protocol: Plasmin (Pls) activity was assayed as described^7. Peptides and proteins that were tested for their stimulatory ability were regularly used at 100 μg ml^−1. […] Chromogenic substrate S-2251 (Chromogenix, Instrumentation Laboratory SpA, Milano, Italy) was used to measure Pls activity. Conversion of zymogen factor XII (#233490, Calbiochem, EMD Biosciences, Inc., San Diego, Calif.) to proteolytically active factor XII (factor XIIa) was assayed by measurement of the conversion of chromogenic substrate Chromozym-PK (Roche Diagnostics, Almere, The Netherlands) by kallikrein. Chromozym-PK was used at a concentration of 0.3 mM. Factor XII, human plasma prekallikrein (#529583, Calbiochem) and human plasma cofactor high-molecular weight kininogen (#422686, Calbiochem) were used at concentrations of 1 μg ml^−1. […] Assays were performed using microtiter plates (Costar, Cambridge, Mass., USA). Peptides and proteins were tested for their ability to activate factor XII. […] The conversion of Chromozym-PK was recorded kinetically at 37° C. for at least 60 minutes. […] With S-2222, activation of factor XII in plasma was measured, using 60% v/v plasma, diluted with substrate and H2O with or without potential cofactor. Furthermore, auto-activation of factor XII was measured by incubating 53 μg ml^−1 purified factor XII in 50 mM Tris-HCl buffer pH 7.5 with 1 mM EDTA and 0.001% v/v Triton-X100, with S-2222 and H2O with or without potential cofactor.
Formulated protein therapeutics were obtained from the local hospital pharmacy and were used as supplied by the manufacturers. […] Enhancement in fluorescence of ThT and Congo red was measured with all formulated protein therapeutics. […]
To prepare structurally altered ovalbumin (OVA) with amyloid cross-β structure conformation, purified OVA (Sigma, A-7641, lot 071k7094) was heated to 85° C. […] Native OVA (nOVA) and heat-denatured OVA (dOVA) were tested in the ThT fluorescence assay and in the Plg-activation assay. In the fluorescence assay and in the Plg-activation assay, 25 and 100 μg ml^−1 nOVA and dOVA were tested, respectively. […]

[3] = ThT fluorescence of β2GPI with or without CL vesicles or DXS500k; format: physicochemical; settings: 25 μg ml^−1 β2GPI, 100 μM CL vesicles or 250 μg ml^−1 DXS
Protocol: ThT fluorescence of β2GPI was measured as follows. […] CL vesicles were prepared according to an established procedure. Briefly, CL was dried under a stream of nitrogen. The lipids were resuspended to a concentration of 10 mg ml^−1 in 25 mM Tris-HCl, pH 7.3, 150 mM NaCl by vigorous agitation, using a vortex. In the ThT fluorescence assay, fluorescence of β2GPI in buffer, of CL or DXS500k in buffer, of buffer and ThT alone, and of β2GPI-CL adducts and β2GPI-DXS500k adducts, with or without ThT, was recorded as described above (section ThT fluorescence). In addition, TEM images were recorded with CL, β2GPI from human plasma, with or without CL, and with recombinant β2GPI, as described^1.

factor XII = molecular target: T2, factor XII (Homo sapiens, UniProt P00748); experiment: ELISA, binding of β2GPI to immobilized factor XII
T2 construct: purchased Calbiochem, EMD Biosciences #233490
T2 sequence (P00748 20-615): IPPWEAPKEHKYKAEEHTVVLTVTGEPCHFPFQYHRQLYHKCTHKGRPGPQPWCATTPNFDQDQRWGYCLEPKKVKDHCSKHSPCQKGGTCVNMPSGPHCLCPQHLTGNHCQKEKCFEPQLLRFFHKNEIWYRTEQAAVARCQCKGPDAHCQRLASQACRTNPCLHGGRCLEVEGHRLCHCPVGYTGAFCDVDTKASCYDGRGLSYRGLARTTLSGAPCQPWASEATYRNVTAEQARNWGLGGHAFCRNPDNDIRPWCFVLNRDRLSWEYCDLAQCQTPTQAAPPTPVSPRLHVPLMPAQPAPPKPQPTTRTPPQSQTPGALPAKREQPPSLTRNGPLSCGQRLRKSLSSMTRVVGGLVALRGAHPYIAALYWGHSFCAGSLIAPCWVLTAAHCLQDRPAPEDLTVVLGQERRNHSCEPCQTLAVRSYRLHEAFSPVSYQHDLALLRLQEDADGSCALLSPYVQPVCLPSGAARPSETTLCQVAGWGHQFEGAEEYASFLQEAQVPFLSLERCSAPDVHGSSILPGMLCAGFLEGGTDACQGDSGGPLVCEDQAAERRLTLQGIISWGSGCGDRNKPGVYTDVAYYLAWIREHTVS
Protocol: (§1) Binding of purified human factor XII from plasma (Calbiochem) or of purified recombinant human tPA to β2GPI purified from human plasma, or to recombinant human β2GPI was tested in an ELISA. Ten μg of factor XII or tPA in PBS was coated onto wells of a Costar 2595 ELISA plate (Cambridge, USA) and incubated with concentration series of the two β2GPI preparations. Binding of β2GPI was assessed with monoclonal antibody 2B2^13.

[4] = ThT fluorescence of LPS-protein mixtures; format: physicochemical; settings: 1 mg ml^−1 protein exposed to 600 μg ml^−1 LPS (FIG. 4C)
Protocol: (§2) Fluorescence of ThT-protein/peptide adducts was measured as follows. […] Fluorescence was measured at 485 nm upon excitation at 435 nm. Background signals from buffer, buffer with ThT and protein/peptide solution without ThT were subtracted from corresponding measurements with protein solution incubated with ThT. […] Fluorescence was measured in triplicate on a Hitachi F-4500 fluorescence spectrophotometer (Ltd., Tokyo, Japan).
Subsequently, the ability to enhance ThT fluorescence was determined with 40× diluted solution, as described above. […]

[5] = ThT fluorescence of CpG-ODN-protein mixtures; format: physicochemical; settings: 1 mg ml^−1 protein exposed to 21.4 μg ml^−1 CPG-ODN (FIG. 4F)
Protocol: as §2
Enhancement of ThT fluorescence was measured similarly as described above. […]

tPA [6] = molecular target: T1, tPA; experiment: ELISA, binding of β2GPI to immobilized tPA
Protocol: as §1

inhibition of binding of anti-β2GPI auto-antibodies to immobilized β2GPI [1]: minor effect on antibody binding | binding to factor XII (factor XII): not bind | binding to tPA (tPA [6]): not bind
B1: plasma β2GPI: β2-glycoprotein I purified from fresh human plasma (protein)
chain: GRTCPKPDDLPFSTVVPLKTFYEPGEEITYSCKPGYVSRGGMRKFICPLTGLWPINTLKCTPRVCPFAGILENGAVRYTTFEYPNTISFSCNTGFYLNGADSAKCTEEGKWSPELPVCAPIICPPPSIPTFATLRVYKPSAGNNSLYRDTAVFECLPQHAMFGNDTITCTTHGNWTKLPECREVKCPFPSRPDNGFVNYPAKPTLYYKDKATFGCHDGYSLDGPEEIECTKLGNWSAMPSCKASCKVPVKKATVVYQGERVKIQEKFKNGMLHGDKVSFFCKNKEKKCSYTEDAQCIDGTIEVPKCFKEHSSLAFWKTDASDVKPC
stimulation of tPA-mediated conversion of Plg to Pls (tPA [2]): not | ThT fluorescence after exposure to CL vesicles or DXS [3]: increased fluorescence of ThT | ThT fluorescence enhancement [4]: ~2 times | increased ThT fluorescence [5]: ~2 factor
